Test results reported in patent US20180339041A1 (Kyowa Kirin, published 2018).
Several values for one entry are separate records, joined by “and”; a condition that tells them apart may be missing. Identical values can stand only once.

T1: C-terminally FLAG-tagged human Gas6 recombinant protein (hGas6-F) (human, UniProt Q14393 31-678, gamma-carboxylated glutamic acid residues in the Gla domain (producer cells co-express rat VKOR and human GGCX); positions not given)
T1 construct: also called human Gas6-F; human Gas6 protein
T1 sequence: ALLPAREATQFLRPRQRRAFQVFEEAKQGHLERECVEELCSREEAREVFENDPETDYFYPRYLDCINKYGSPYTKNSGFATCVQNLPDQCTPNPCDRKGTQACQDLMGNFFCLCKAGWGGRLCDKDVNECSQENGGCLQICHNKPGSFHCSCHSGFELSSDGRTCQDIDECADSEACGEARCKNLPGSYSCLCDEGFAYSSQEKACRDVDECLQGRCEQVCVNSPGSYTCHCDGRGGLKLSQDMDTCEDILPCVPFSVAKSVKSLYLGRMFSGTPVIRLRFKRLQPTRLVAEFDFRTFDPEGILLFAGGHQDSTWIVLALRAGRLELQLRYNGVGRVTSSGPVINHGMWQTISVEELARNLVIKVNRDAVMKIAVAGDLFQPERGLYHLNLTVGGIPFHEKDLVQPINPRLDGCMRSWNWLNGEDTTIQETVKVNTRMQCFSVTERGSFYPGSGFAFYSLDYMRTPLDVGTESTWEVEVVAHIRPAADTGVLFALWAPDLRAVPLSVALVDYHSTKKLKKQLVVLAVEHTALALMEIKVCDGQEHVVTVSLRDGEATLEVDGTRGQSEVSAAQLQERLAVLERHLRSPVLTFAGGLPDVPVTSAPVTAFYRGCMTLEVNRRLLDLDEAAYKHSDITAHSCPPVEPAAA

B1: hzKM5321 LV1aHV7 antibody (antibody, V domains shown)
VH: QIHLVQSGPELKKPGASVKISCKASGYTFTNYGMNWVKQAPGQGLKWMGWINTNTGEPTYTEEFKGRFVFSLDTSVTTAYLQISTLKAEDTATYFCARDEGWFVYWGQGTLITVSS
VL: ETTLTQSPSSLSASVGDRVTITCITSTDIDDDMNWYQQKPGKPPKLLISEGNTLRPGVPSRFSGSGSGTDFTLTISSLQPEDFATYYCLQTDSVPLTFGQGTKVEIK
notes: Humanized; variant human IgG4 constant region (EU S228P, L235E, R409K), human kappa; also called B-13; LV1aHV7
B2: hzKM5321 LV1cHV7 antibody (antibody, V domains shown)
VH: QIHLVQSGPELKKPGASVKISCKASGYTFTNYGMNWVKQAPGQGLKWMGWINTNTGEPTYTEEFKGRFVFSLDTSVTTAYLQISTLKAEDTATYFCARDEGWFVYWGQGTLITVSS
VL: ETTLTQSPSSLSVSVGDRVTITCITSTDIDDDMNWYQQKPGKAPKLLISEGNTLRPGVPSRFSGSGSGTDFTLTISSLQPEDFATYYCLQTDSVPLTFGQGTKVEIK
notes: Humanized; variant human IgG4 constant region (EU S228P, L235E, R409K), human kappa; also called B-15; LV1cHV7
B3: hzKM5321 LV3HV0 antibody (antibody, V domains shown)
VH: QVHLVQSGSELKKPGASVKISCKASGYTFTNYGMNWVRQAPGQGLEWMGWINTNTGEPTYTEEFKGRFVFSLDTSVTTSYLQISTLKAEDTAVYFCARDEGWFVYWGQGTLVTVSS
VL: ETTLTQSPSSLSASTGDRVTITCITSTDIDDDMNWYQQKPGKAPKLLISEGNTLRPGVPSRFSGSGSGTDFTLTISSTQPEDFADYYCLQTDSVPLTFGQGTKVEIK
notes: Humanized; variant human IgG4 constant region (EU S228P, L235E, R409K), human kappa; also called B-06; LV3HV0
B4: hzKM5321 LV1cHV0 antibody (antibody, V domains shown)
VH: QVHLVQSGSELKKPGASVKISCKASGYTFTNYGMNWVRQAPGQGLEWMGWINTNTGEPTYTEEFKGRFVFSLDTSVTTSYLQISTLKAEDTAVYFCARDEGWFVYWGQGTLVTVSS
VL: ETTLTQSPSSLSVSVGDRVTITCITSTDIDDDMNWYQQKPGKAPKLLISEGNTLRPGVPSRFSGSGSGTDFTLTISSLQPEDFATYYCLQTDSVPLTFGQGTKVEIK
notes: Humanized; variant human IgG4 constant region (EU S228P, L235E, R409K), human kappa; also called B-05; LV1cHV0
B5: hzKM5321 LV6HV5 antibody (antibody, V domains shown)
VH: QIHLVQSGSELKKPGASVKISCKASGYTFTNYGMNWVKQAPGQGLKWMGWINTNTGEPTYTEEFKGRFVFSLDTSVTTAYLQISTLKAEDTAVYFCARDEGWFVYWGQGTLITVSS
VL: ETTLTQSPSSLSVSTGDRVTITCITSTDIDDDMNWYQQKPGKPPKLLISEGNTLRPGVPSRFSSSGSGTDFTLTISSTQPEDFADYYCLQTDSVPLTFGQGTKVEIK
notes: Humanized; variant human IgG4 constant region (EU S228P, L235E, R409K), human kappa; also called B-29; LV6HV5
B6: hzKM5321 LV6HV3b antibody (antibody, V domains shown)
VH: QVHLVQSGSELKKPGASVKISCKASGYTFTNYGMNWVKQAPGQGLKWMGWINTNTGEPTYTEEFKGRFVFSLDTSVTTSYLQISTLKAEDTATYFCARDEGWFVYWGQGTLVTVSS
VL: ETTLTQSPSSLSVSTGDRVTITCITSTDIDDDMNWYQQKPGKPPKLLISEGNTLRPGVPSRFSSSGSGTDFTLTISSTQPEDFADYYCLQTDSVPLTFGQGTKVEIK
notes: Humanized; variant human IgG4 constant region (EU S228P, L235E, R409K), human kappa; also called B-26; LV6HV3b
B7: hzKM5321 LV6HV2a antibody (antibody, V domains shown)
VH: QVHLVQSGSELKKPGASVKISCKASGYTFTNYGMNWVKQAPGQGLKWMGWINTNTGEPTYTEEFKGRFVFSLDTSVTTSYLQISTLKAEDTAVYFCARDEGWFVYWGQGTLVTVSS
VL: ETTLTQSPSSLSVSTGDRVTITCITSTDIDDDMNWYQQKPGKPPKLLISEGNTLRPGVPSRFSSSGSGTDFTLTISSTQPEDFADYYCLQTDSVPLTFGQGTKVEIK
notes: Humanized; variant human IgG4 constant region (EU S228P, L235E, R409K), human kappa; also called B-23; LV6HV2a
B8: hzKM5321 LV3HV7 antibody (antibody, V domains shown)
VH: QIHLVQSGPELKKPGASVKISCKASGYTFTNYGMNWVKQAPGQGLKWMGWINTNTGEPTYTEEFKGRFVFSLDTSVTTAYLQISTLKAEDTATYFCARDEGWFVYWGQGTLITVSS
VL: ETTLTQSPSSLSASTGDRVTITCITSTDIDDDMNWYQQKPGKAPKLLISEGNTLRPGVPSRFSGSGSGTDFTLTISSTQPEDFADYYCLQTDSVPLTFGQGTKVEIK
notes: Humanized; variant human IgG4 constant region (EU S228P, L235E, R409K), human kappa; also called B-16; LV3HV7
B9: hzKM5321 LV1bHV7 antibody (antibody, V domains shown)
VH: QIHLVQSGPELKKPGASVKISCKASGYTFTNYGMNWVKQAPGQGLKWMGWINTNTGEPTYTEEFKGRFVFSLDTSVTTAYLQISTLKAEDTATYFCARDEGWFVYWGQGTLITVSS
VL: ETTLTQSPSSLSASVGDRVTITCITSTDIDDDMNWYQQKPGKAPKLLISEGNTLRPGVPSRFSGSGSGTDFTLTISSLQPEDFADYYCLQTDSVPLTFGQGTKVEIK
notes: Humanized; variant human IgG4 constant region (EU S228P, L235E, R409K), human kappa; also called B-14; LV1bHV7
B10: hzKM5321 LV4HV7 antibody (antibody, V domains shown)
VH: QIHLVQSGPELKKPGASVKISCKASGYTFTNYGMNWVKQAPGQGLKWMGWINTNTGEPTYTEEFKGRFVFSLDTSVTTAYLQISTLKAEDTATYFCARDEGWFVYWGQGTLITVSS
VL: ETTLTQSPSSLSVSTGDRVTITCITSTDIDDDMNWYQQKPGKAPKLLISEGNTLRPGVPSRFSGSGSGTDFTFTISSTQPEDFATYYCLQTDSVPLTFGQGTKVEIK
notes: Humanized; variant human IgG4 constant region (EU S228P, L235E, R409K), human kappa; also called B-17; LV4HV7
B11: hzKM5321 LV6HV4b antibody (antibody, V domains shown)
VH: QVHLVQSGPELKKPGASVKISCKASGYTFTNYGMNWVKQAPGQGLKWMGWINTNTGEPTYTEEFKGRFVFSLDTSVTTSYLQISTLKAEDTATYFCARDEGWFVYWGQGTLVTVSS
VL: ETTLTQSPSSLSVSTGDRVTITCITSTDIDDDMNWYQQKPGKPPKLLISEGNTLRPGVPSRFSSSGSGTDFTLTISSTQPEDFADYYCLQTDSVPLTFGQGTKVEIK
notes: Humanized; variant human IgG4 constant region (EU S228P, L235E, R409K), human kappa; also called B-28; LV6HV4b
B12: hzKM5321 LV6HV4a antibody (antibody, V domains shown)
VH: QIHLVQSGPELKKPGASVKISCKASGYTFTNYGMNWVRQAPGQGLEWMGWINTNTGEPTYTEEFKGRFVFSLDTSVTTAYLQISTLKAEDTAVYFCARDEGWFVYWGQGTLITVSS
VL: ETTLTQSPSSLSVSTGDRVTITCITSTDIDDDMNWYQQKPGKPPKLLISEGNTLRPGVPSRFSSSGSGTDFTLTISSTQPEDFADYYCLQTDSVPLTFGQGTKVEIK
notes: Humanized; variant human IgG4 constant region (EU S228P, L235E, R409K), human kappa; also called B-27; LV6HV4a
B13: hzKM5321 LV4HV0 antibody (antibody, V domains shown)
VH: QVHLVQSGSELKKPGASVKISCKASGYTFTNYGMNWVRQAPGQGLEWMGWINTNTGEPTYTEEFKGRFVFSLDTSVTTSYLQISTLKAEDTAVYFCARDEGWFVYWGQGTLVTVSS
VL: ETTLTQSPSSLSVSTGDRVTITCITSTDIDDDMNWYQQKPGKAPKLLISEGNTLRPGVPSRFSGSGSGTDFTFTISSTQPEDFATYYCLQTDSVPLTFGQGTKVEIK
notes: Humanized; variant human IgG4 constant region (EU S228P, L235E, R409K), human kappa; also called B-07; LV4HV0
B14: hzKM5321 LV1bHV0 antibody (antibody, V domains shown)
VH: QVHLVQSGSELKKPGASVKISCKASGYTFTNYGMNWVRQAPGQGLEWMGWINTNTGEPTYTEEFKGRFVFSLDTSVTTSYLQISTLKAEDTAVYFCARDEGWFVYWGQGTLVTVSS
VL: ETTLTQSPSSLSASVGDRVTITCITSTDIDDDMNWYQQKPGKAPKLLISEGNTLRPGVPSRFSGSGSGTDFTLTISSLQPEDFADYYCLQTDSVPLTFGQGTKVEIK
notes: Humanized; variant human IgG4 constant region (EU S228P, L235E, R409K), human kappa; also called B-04; LV1bHV0
B15: hzKM5321 LV6HV3a antibody (antibody, V domains shown)
VH: QVHLVQSGPELKKPGASVKISCKASGYTFTNYGMNWVRQAPGQGLKWMGWINTNTGEPTYTEEFKGRFVFSLDTSVTTSYLQISTLKAEDTATYFCARDEGWFVYWGQGTLVTVSS
VL: ETTLTQSPSSLSVSTGDRVTITCITSTDIDDDMNWYQQKPGKPPKLLISEGNTLRPGVPSRFSSSGSGTDFTLTISSTQPEDFADYYCLQTDSVPLTFGQGTKVEIK
notes: Humanized; variant human IgG4 constant region (EU S228P, L235E, R409K), human kappa; also called B-25; LV6HV3a
B16: hzKM5321 LV6HV0 antibody (antibody, V domains shown)
VH: QVHLVQSGSELKKPGASVKISCKASGYTFTNYGMNWVRQAPGQGLEWMGWINTNTGEPTYTEEFKGRFVFSLDTSVTTSYLQISTLKAEDTAVYFCARDEGWFVYWGQGTLVTVSS
VL: ETTLTQSPSSLSVSTGDRVTITCITSTDIDDDMNWYQQKPGKPPKLLISEGNTLRPGVPSRFSSSGSGTDFTLTISSTQPEDFADYYCLQTDSVPLTFGQGTKVEIK
notes: Humanized; variant human IgG4 constant region (EU S228P, L235E, R409K), human kappa; also called B-08; LV6HV0

Target: T1, C-terminally FLAG-tagged human Gas6 …
Assay: SPR Biacore T100, captured antibody, Gas6 analyte, first test
Method: An anti-human IgG antibody was immobilized on a CM5 sensor chip (manufactured by GE Healthcare Japan Corp.) using Human Antibody Capture Kit (manufactured by GE Healthcare Japan Corp.) according to the attached manual. Each test antibody adjusted to 1 μg/mL was added for 10 seconds at a flow rate of 10 μL/min to flow cells. […] The measurement was performed by the […] method. The obtained sensorgram was analyzed using Bia Evaluation Software (manufactured by GE Healthcare Japan Corp.), and the kinetic constant of each antibody was calculated.

Binder	Kd	koff	kon
B1	< 6.83 nM	0.000684 s⁻¹	> 100000 M⁻¹ s⁻¹
B2	< 7.45 nM	0.00075 s⁻¹	> 101000 M⁻¹ s⁻¹
B3	< 1.86 nM	0.000285 s⁻¹	> 153000 M⁻¹ s⁻¹
B4	< 4.05 nM	0.000511 s⁻¹	> 126000 M⁻¹ s⁻¹
B5	< 2.61 nM	0.000277 s⁻¹	> 106000 M⁻¹ s⁻¹
B6	< 1.88 nM	0.0002 s⁻¹	> 106000 M⁻¹ s⁻¹
B7	< 2.07 nM	0.000212 s⁻¹	> 102000 M⁻¹ s⁻¹
B8	< 7.03 nM	0.000712 s⁻¹	> 101000 M⁻¹ s⁻¹
B9	< 7.49 nM	0.000751 s⁻¹	> 100000 M⁻¹ s⁻¹
B10	< 8.59 nM	0.000859 s⁻¹	> 100000 M⁻¹ s⁻¹
B11	< 1.92 nM	0.000204 s⁻¹	> 106000 M⁻¹ s⁻¹
B12	< 3.2 nM	0.000341 s⁻¹	> 106000 M⁻¹ s⁻¹
B13	< 4.38 nM	0.000551 s⁻¹	> 126000 M⁻¹ s⁻¹
B14	< 4.26 nM	0.000543 s⁻¹	> 127000 M⁻¹ s⁻¹
B15	< 2.15 nM	0.000226 s⁻¹	> 105000 M⁻¹ s⁻¹
B16	< 1.19 nM	0.000159 s⁻¹ and 0.000238 s⁻¹	> 134000 M⁻¹ s⁻¹
